Legend:
[1] = molecular target: T1, human TNFα in complex with compound (1) (human, UniProt P01375 77-233); assay: SPR (BIAcore), against apo human TNFα
T1 construct: also called human TNFα +compound (1); TNFα-compound (1) complex

[2] = molecular target: T2, human TNFα in complex with compound (2) (human, UniProt P01375 77-233); assay: SPR (BIAcore), against apo human TNFα
T2 construct: also called human TNFα +compound (2); compound-distorted human TNFα
T2 sequence (P01375 77-233 limits assumed, one chain of several): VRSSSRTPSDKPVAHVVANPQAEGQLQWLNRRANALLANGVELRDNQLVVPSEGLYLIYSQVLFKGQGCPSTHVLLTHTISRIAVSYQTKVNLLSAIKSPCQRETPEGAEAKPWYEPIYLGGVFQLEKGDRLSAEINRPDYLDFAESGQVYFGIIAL

T1 sequence (P01375 77-233 limits assumed, one chain of several): as above

selective binding for compound-distorted over apo human TNFα (log) [1]: > 2 log
selective binding for compound-distorted over apo human TNFα (log) [2]: > 2 log
B1: CA185_01979 mouse IgG1 (antibody, V domains shown)
VH: EVHLVESGPGLVKPSQSLSLTCSVTGYSITNSYWDWIRKFPGNKMEWMGYINYSGSTGYNPSLKSRISISRDTSNNQFFLQLNSITTEDTATYYCARGTYGYNAYHFDYWGRGVMVTVSS
VL: DIQMTQSPASLSASLEEIVTITCQASQDIGNWLSWYQQKPGKSPHLLIYGTTSLADGVPSRFSGSRSGTQYSLKISGLQVADIGIYVCLQAYSTPFTFGSGTKLEIKR
notes: mIgG1 heavy chain and kappa light chain; also called CA185_01979.0; VR0001842

Source: US20220074947A1 (UCB, published 2022)
